Test results published in patent US7250290B1, “Arsenic methyltransferase sequence variants” (priority 2003, dated 2007).
Read-outs that look alike come from different tables or passages of the source.

Tests used:
[1] = test system: recombinant ASMT allozymes; assay: Substrate kinetic studies, apparent Km of recombinant ASMT allozymes; format: biochemical, human
Experimental: Estimating Apparent Km Values: To estimate apparent Km values of ASMT for the sodium arsenite and SAM, a series of sodium arsenite and SAM concentrations were tested with the recombinant allozymes. Blanks for each substrate concentration were included by assaying COS-1 cell cytosol after transfection with empty p91023(b) vector. […] Apparent Km values were calculated using the method of Wilkinson with a computer program written by Cleland. Wilkinson supra; and Cleland supra.
Alterations in amino acid sequence can alter enzyme substrate affinity and/or catalytic efficiency. […] A series of sodium arsenite and SAM concentrations were used to estimate apparent Km values for recombinant wild type ASMT and for the three variant allozymes.

[2] = test system: recombinant ASMT allozymes; assay: ASMT enzyme activity of recombinant allozymes (methylation of sodium arsenite with 14C-SAM); format: biochemical, human; details: COS-1 cell homogenate, 2.5 mM sodium arsenite, 10 μM 14C-SAM, corrected for transfection efficiency, mean ± SEM
From the text: Recombinant ASMT Expression Constructs and Allozyme Expression: ASMT cDNA sequences for the three non-synonymous cSNPs observed during the resequencing experiments were created using the QuickChange Site-Directed Mutagenesis kit (Stratagene, La Jolla, Calif.), with the wild type ASMT cDNA open reading frame (ORF) in the pUni/V5-His-TOPO (pUni) vector (Invitrogen) as template. Specifically, the full-length wild type ORF was amplified using human brain Marathon-Ready cDNA (Clontech) as template. The resultant ASMT cDNA was subcloned into pUni, a vector that is only 2.3 kilobases in length and thus is well suited for performing “circular PCR” during site-directed mutagenesis. Site-directed mutagenesis was performed using internal primers that contained the variant nucleotide sequences. […]
ASMT Enzyme Activity: ASMT activity was measured using the methods of Zakharayan et al. (Chem. Res. Toxicol. 8(8):1029-1038 (1995)). […] The protein concentration of each recombinant protein preparation was determined by the dye-binding method of Bradford (Anal. Biochem. 72:248-254 (1976)) with bovine serum albumin as a standard. “Blank” samples included the same quantity of COS-1 15,000 x g supernatant from cells that were transfected with “empty” p91023(b) expression vector to correct for endogenous activity. […]

B1: WT: recombinant wild type (reference) human ASMT polypeptide, SEQ ID NO:5, expressed in COS-1 cells (protein, listed as Homo Sapiens)
chain: MAALRDAEIQKDVQTYYGQVLKRSADLQTNGCVTTARPVPKHIREALQNVHEEVALRYYGCGLVIPEHLENCWILDLGSGSGRDCYVLSQLVGEKGHVTGIDMTKGQVEVAEKYLDYHMEKYGFQASNVTFIHGYIEKLGEAGIKNESHDIVVSNCVINLVPDKQQVLQEAYRVLKHGGELYFSDVYTSLELPEEIRTHKVLWGECLGGALYWKELAVLAQKIGFCPPRLVTANLITIQNKELERVIGDCRFVSATFRLFKHSKTGPTKRCQVIYNGGITGHEKELMFDANFTFKEGEIVEVDEETAAILKNSRFAQDFLIRPIGEKLPTSGGCSALELKDIITDPFKLAEESDSMKSRCVPDAAGGCCGTKKSC
- Km ([1]; substrate SAM, read-out: SAM Km): 12 ± 6.9 µM
- Km ([1]; substrate sodium arsenite, read-out: Sodium Arsenite Km): 4.6 µM
- Enzyme Activity (% WT) [2]: 100 % WT
